According to the DeepSol protein solubility set:

Experiment: soluble on expression in E. coli; label from the status in PepcDB or PDB records

| Sequence | soluble on expression in E. coli |
| --- | --- |
| MKTICVFAGSNPGGNEAYKRKAAELGVYMAEQGIGLVYGGSRVGLMGTIADAIMENGGTAIGVMPSGLFSGEVVHQNLTELIEVNGMHERKAKMSELADGFISMPGGFGTYEELFEVLCWAQIGIHQKPIGLYNVNGYFEPMMKMVKYSIQEGFSNESHLKLIHSSSRPDELIEQMQNYSYPILEKKWTEI | soluble |
| DGTCVNTNSQITANSQCVKSTATNCYIDNSQLVDTSICTRSQYSDANVKKSVTTDCNIDKSQVYLTTCTGSQYNGIYIRSSTTTGTSISGPGCSISTCTITRGVATPAAACKISGCSLSAM | soluble |
| MGSDKIHHHHHHMNFTHKNLQRSYMAERTMVILDGGMGRELQRSGAPFRQPEWSALALSEAPEAVVGVHAAFIDAGAQVITSNSYAVVPFHIGEERFAAEGRQLAHIAGQLARHAADSGAHPVRVAGSLPPLFGSYRPDLFQPERVAEVLTPLLQGLAPHVDLWLAETQSSVAEVRAIHSHLPADGRPFWVSFTLQDEEVDEVPRLRSGEPVAEAIEAAVGLGVAAVLFNCSQPEVIGAAIDVARSVIERHNAEIAIGAYANAFPPQPKEATANDGLDELREDLDPPGYLAWAKDWRARGASMVGGCCGIGPEHIAELKRNLA | not soluble |
| MGSDKIHHHHHHCDETELDQTVTNQVNPQKEEDSRIVFNSAKEFYNTLDTLSYMTYEEQTEWIRASGIKYPLYKDLEFCEDEIMTEMPRAFQALFNHKMEMQINDTVIAFEKGNMYVKSIKEKILPVPVLYGQVGVNQEESEVTTRTVYETKYGKIGTSYQYEFKIPEGKSKYKYVHELKSVIIKENLPPYKSWSNLFLVLKLEWKGKKKWKVAEKEERNISIDLNVCKRNLAKVKYNQEIRIDVQNMDSKSHSINIEGYIIHEVVGIPSTKMFNGWSYPLVEWQPR | not soluble |
| MLSEQLLAQQHLPEKLKKNIPGLYFHGRVGRGKTMLMDLFYQHLAIKNKKRIHFHHFMESVHQQLAQLTGQSEPLSHIAAKWAQNIDLLCFDEFYVSDIGDAMLLSGLFSALFKQGVTLVATSNCQPEQLYRNGLQRERFLPTIALINQHCQIVSINGDVDHRRTKLSKNSCYNNYFLLANEGNEKLIERFQSLTDAEMLVSGEIEINHRQLCYLAQSANVIFFDFFALCSGPRSQRDYMVLAKDFDTVCIANVPKFSGELVPAVFSGVEDSYQRSGVLMGELQQLDDEARRFIALVDEFYDQNVKLIVSAQVDIFELYQGQQLAFEFERCQSRLIEMQQSLEHHHHHH | not soluble |
| SSPFLYLVLLVLGLHATIHCASPEGKVTACHSSQPNATLYKMSSINADFAFNLYRRFTVETPDKNIFFSPVSISAALVMLSFGACCSTQTEIVETLGFNLTDTPMVEIQHGFQHLICSLNFPKKELELQIGNALFIGKHLKPLAKFLNDVKTLYETEVFSTDFSNISAAKQEINSHVEMQTKGKVVGLIQDLKPNTIMVLVNYIHFKAQWANPFDPSKTEDSSSFLIDKTTTVQVPMMHQMEQYYHLVDMELNCTVLQMDYSKNALALFVLPKEGQMESVEAAMSSKTLKKWNRLLQKGWVDLFVPKFSISATYDLGATLLKMGIQHAYSENADFSGLTEDNGLKLSNAAHKAVLHIGEKGTEAAAVPEVELSDQPENTFLHPIIQIDRSFMLLILERSTRSILFLGKVVNPTEA | not soluble |
| MDMQHDDLNYEYLYGTTYPLMKNAGKAVADAVMKNYPDARTVCVVAGTGNNGGDAIVAGSILSAKYDVRVLIVTEVRSELARRALSEYGGRVIGLDGMEECMKCDVIIDGIFGVGISGDPKDPYRSVIENINRSCSHVVSVDIPSGLGTRYAVKPEITVTFTMEKYGMNQDNSGKIIVADIGIPPDVRKYAGPGDLLYYPKPDPSSHKGMNGTLAIVGGWEFHGSSVIAALAAERIGLDLVRVFVSPRNYQIVSGYDPGIIVRQVEKLDEKKLSEIYGNSAILLGPGMGKGDDAMEAARKIVSDSRVPMVVDADALDAVGAYSGSFAGRKIIITPHKGEFRRISGFEPTEENAISYARKKGLIVVLKGQVDVITNGEEVHYAKGGNARMTMGGTGDLLAGIISAFLARSVDPMRACLMGTYLNKALGEAAYSKHGYWYTVTDMISEIPGVMGKYIKI | not soluble |
| MRMRLMLLGGGNALGQALIRLGAEEDIAFLAPRPPENGWAPSSLTQLLDDHRPDALVNLAYYFDWFQAESVSEQRLAQQERAVERLAELCQHHQITLVQPSSYRVFDGSRATAYSEKDEPVPLGLRGQALWRIEQSVRAACPQHVLLRFGWLLDESIDGALGRFLTRAEQPQELLLADDRRGNPTPVDDAARVILSVLKQLDCNAPLWGTYHYAGNEATTPLALGQAILAEAGQYRQLAVQAPTPQAHAARPDASEEPQHAVLACKKILHTFGIKPRAWRAGLPPLLDRFYRHG | not soluble |
| MGSDKIHHHHHHEEEEQKPAYGKIDVAVSVTLPQPESVNTLTRAGGPYTDTDIKNADLLIFDKDAKFMERVKVENDRLVITGTGINFTVRLDATSERRIIHLVANGRSADGTSDRLNFGDITPGMTENAAISSLQTASLEHVDEGESTLLNHVMPLVMWGRFALNGINIVTKAEGVKLLRSTACIQVKKGNGGGNTGLDDFVIEGITVHQGACHGFLAPTDCTGEVNTPVVTNPVTGGIYLDYRKGWVNGAEPSLYIYERNCSASDYMGVVIAARYKGKKGYYKVVMNGNDGSPLNIVRNHRYIVTVVGVNGPGYESPDIAVASAPSNALKVELTDEDTDLPCIVADGQYRMASSNNVFSLYGKTGVTTSATGVDICTVYSSRGIQPVLTLPDDCNWLTNLSAQALGSNKYKITGDFTSAANDAVATTLTMTCDNLSQPVRVSWNPIISDQKDTDSFVLDLVGSTDRNWTVRVLNPTSPGWLFLHPSAASPGALPGDGMVSELSSKYSSHAYLHVAFGASRRGTVQMTSASSGETVARKIVVIQ | not soluble |
| MGSDKIHHHHHHMVKGLYTAHTGMVNEMKRMDVLANNLANSDTYGFKKEGTTSHSFKNELAIKIKDTSNYGLHKNLGSMTYGVHLGETYTDWDEGSFKVTDNPTDLAIGGKGFFAVAFTDKSGQTSVKYTRDGAFKVNADGYLVTADGDHVLNATGALSGDGGEANWVKVDPNEKFSVNSLGYITQNNQLVGTIGVVDVDNYDYIEKYGENLYNLTAGGNIIASDAEIEQGALETSNVNVVNEMVLG | not soluble |
| MGSDKIHHHHHHMNFIKEKHIEIVLNQTCLNPKLSVFLPVIKKTGVQLISVFHSQPYGMYGIKAFPKICNVFGVDKVGNLVDVLIHFAFKLKYGRYLKRMLQYSDKLVMLSDKFINEFLYFSGKKYAEKMLSISNPVTINGGGSEKKEKIVLFVGRISQEKGVDKILEVWRGICHEEKYKEWRLVIVGDGEKRKQMEKYAMDMELINYSFEGFQKPDGYYDKAKIFCMASAFEGFGLVLVEAMSYGVVPMAFNSFSNCSDIIDDDKNGILVTPFSINEYRKKIIELIENDEKWMKMSTCSINKSKEYSIECIGAKWLDLFYSLLNNKVT | not soluble |
| TNVISTLDLNLLTKGGGSWNVDGVNMKKSAVTTFDGKRVVKAVYDKNSGTSANPGVGGFSFSAVPDGLNKNAITFAWEVFYPKGFDFARGGKHGGTFIGHGAASGYQHSKTGASNRIMWQEKGGVIDYIYPPSDLKQKIPGLDPEGHGIGFFQDDFKNALKYDVWNRIEIGTKMNTFKNGIPQLDGESYVIVNGKKEVLKRINWSRSPDLLISRFDWNTFFGGPLPSPKNQVAYFTNFQMKKYELEHHHHHH | soluble |
| MRKIIVGAFVSLDGIMQAPGGPHEDPVGGFDHGGWAAPYFDETMGQAVDEMFSKPFDLLLGRKTYDIFAAHWPYAGPDDPIGPLFDRITKYVATRNPDLRLDWQNSRTLGSDPVAMLKKLKSEEGPDLLTQGSTDFLQTLFSNDLVDEMYISYFPVVLGKGKRLFGHGAMPMAMKLLGSKVSGTGVTANKYVRSGPVVTGSFEFEQPTEAELERRRKLS | soluble |
| MQESAQFFNDTGVSMSMQGFHNEAIACLKKGLALEPDNSLMWLNLGLSYYAAKRQNDSKFALFQSLKYNPYEADAWDSLGLVLFETGDIDQAERAFESAIKLEPENGRVWNNYGTVLFNKENYRAARRAFESAVTLDPEMGDAVFNLRDTYLELGMNDLAERCNKILKEMDYQE | not soluble |
| MGSDKIHHHHHHMQSSSTLFPVALLSAERRGDLSEDVYRIKAGNGPDPSVELAITRLGLADQAQAQGVPVILLHGSFSNRRFWYSPKGVGLGAYLARAGFDVWIPEMRGHGLSPRNHDWKHNSVAAYARDDLPLINAFVREQSGQAPHWVGHSLGGTTLVAALGGGFLAAEQLASVALFGTQISRVYWPLKVPPLAWGAKLVLKRWGQISGPRFKRGPEDEPIGLALESMRWHGLFGRFGDKQNDWWAGLAEVDVPLLAVAGAGDFQDPVWACRKLFEQLGGERKQFLRLGREEGFEAFGHVDMLVSKAAQVQVWPLVERWLHNPLLPVHASTVVAEPVPAS | not soluble |
| MAHHHHHHMSIYCRLASPPVFLRALHTVSVSRDGWATVVFTDSHVVLHVEGTDENMTATCTLPKNLFAEYAVVETRFALHIPTLIDALLMLGPSVATASTRAVLAYPTDDAKLLVELTPTDRVAGGGSCGGFSGGGPMTQSDLGV | soluble |
| MALADISGYLDVLDSVRGFSYLENAREVLRSGEARCLGNPRSEPEYVKALYVIGASRIPVGDGCSHTLEELGVFDISVPGEMVFPSPLDFFERGKPTPLVRSRLQLPNGVRVWLKLEWYNPFSLSVKDRPAVEIISRLSRRVEKGSLVADATSSNFGVALSAVARLYGYRARVYLPGAAEEFGKLLPRLLGAQVIVDPEAPSTVHLLPRVMKDSKNEGFVHVNQFYNDANFEAHMRGTAREIFVQSRRGGLALRGVAGSLGTSGHMSAAAFYLQSVDPSIRAVLVQPAQGDSIPGIRRVETGMLWINMLDISYTLAEVTLEEAMEAVVEVARSDGLVIGPSGGAAVKALAKKAAEGDLEPGDYVVVVPDTGFKYLSLVQNALEGAGDSV | soluble |
| MSLATVDKPLPPTDWKVVDNSKTYLKESAMRSFAFDDTLCTLAGKTGQSFIRFWVHENTIVLGTQDTRLPFIREAIEFIEQEGYRAVVRNSGGLAVCLDAGILNLSLVFPGEATFSIDEGYERMVTLVKAIFKEEQIEAGEIAGSYCPGSYDLSIDGKKFAGISQRRIRGGIAVQIYLCVQGSGSARAAFIRSVYNKAVQTSKPAFSYPDIKPEVMASLSELTNVPYSIETIIGRAKTAILESGGQLESAVLSPEEELLYETQLERMIDRHNRCLREGHHHHHH | soluble |
| MSLAPANGLRIYALGGISEIGRNMTVFEYNNRLLIVDCGVLFPSSGEPGVDLILPDFGPIEDHLHRVDALVVTHGHEDHIGAIPWLLKLRNDIPILASRFTLALIAAKCKEHRQRPKLIEVNEQSNEDRGPFNIRFWAVNHSIPDCLGLAIKTPAGLVIHTGDIKLDQTPPDGRPTDLPALSRFGDEGVDLMLCDSTNATTPGVSGSEADVAPTLKRLVGDAKQRVILASFASNVYRVQAAVDAAVASNRKVAFNGRSMIRNMEIAEKLGYLKAPRGTIISMDDASRMAPHKVMLITTGTQGEPMAALSRMARREHRQITVRDGDLIILSSSLVPGNEEAVFGVINMLAQIGATVVTGRDAKVHTSGHGYSGELLFLYNAARPKNAMPVHGEWRHLRANKELAISTGVNRDNVVLAQNGVVVDMVNEGHHHHHH | soluble |
| SNAQESRLDRILESGVLRVATTGDYKPFSYRTEEGGYAGFDVDMAQRLAESLGAKLVVVPTSWPNLMRDFADDRFDIAMSGISINLERQRQAYFSIPYLRDGKTPITLCSEEARFQTLEQIDQPGVTAIVNPGGTNEKFARANLKKARILVHPDNVTIFQQIVDGKADLMMTDAIEARLQSRLHPELCAVHPQQPFDFAEKAYLLPRDEAFKRYVDQWLHIAEQSGLLRQRMEHWLEYR | soluble |
| MEKEKSLMKKQSKKSKKQNIEINYLDLIPVRSEELHWHKDIKGRVILDVENTGWFNKIAQTVFNKPQYTKVHLDAQGTFIWPLIDGKRTVTDIAALVKEEFGEAAEPLYPRIIKYFQIVESYHFIKFANMPSK | not soluble |
